The text below walks through data of publication PMC4938498, “Molecular, Biochemical, and Dietary Regulation Features of α-Amylase in a Carnivorous Crustacean, the Spiny Lobster Panulirus argus” (PLoS ONE, 2016).

Substrate in this series: O=[N+]([O-])c1ccc(O[C@H]2O[C@H](CO)[C@@H](O[C@H]3O[C@H](CO)[C@@H](O[C@H]4O[C@H](CO)[C@@H](O)[C@H](O)[C@H]4O)[C@H](O)[C@H]3O)[C@H](O)[C@H]2O)c(Cl)c1
As to the kind of experiment: purified protein. The series is classed as biochemical, Panulirus argus. The settings on record: 50 mM MES pH 5.5, 0.3 M NaCl, 25 mM CaCl2, 37°C.

As a reminder, the Km is the concentration of substrate that gives half-maximal velocity. A word on the kcat: it is the number of substrate molecules converted per active site and unit of time at saturation.

B1: lobster α-amylase (PaAmy) (Panulirus argus) (protein)
chain: QWDPHVTNGQAIVHLFEWRWSDIASECENFLGPRGYGGVQVSPPNENVVVYQDEKSRPWWERYQPVSYKIATRSGDEASFKDMVNRCNNAGVRIYVDAVINHMSGWWPTGTAATGGSTFDAGAESYPAVPYSAFDFNDANCHTASGTIEDYGDAEQVRNCKLVGLNDLNQGTDYVRGKIRDYLNTLTSWGVAGFRVDATKHMWPGDLKAIFDSLDDLSPHYFDAGSRPFIFQEVIDLGGEPITSSQYVGNGRVTEFKYGKSLGESFNGNNPLKWFSTFGESWGMVDRGNAVVFIDNHDNQRTGGDMILTFRSSKWYKMANAYMLAWPYGFPRVMSSFYWDQWWENGHDKNDWTGPPHDGSYNIVGPTFNPDDSCGNGWICEHRWRQIYNMVQFRNVAHGTDMNDWWDNGSNQISFCRGDRGFIAINNDPWDMKESRQTCLSSGTYCDVISGSKIQGSCTGKTVTVNADGFAYIEILNSEEDGVLAIHRDSKL
notes: native, purified from digestive gland pool; mature enzyme after 21-residue signal peptide (cleavage A21/Q22 predicted); precursor 513 residues; N-glycosylation N429 predicted
As for B1, the Km was determined as 360 ± 52 µM and the turnover number (kcat) stood at 28.42 ± 1.203 s⁻¹.
